Article PMC6166816 (Proceedings of the National Academy of Sciences of the …, 2018)
Where “and” joins values, the source holds several entries; their conditions need not be identical. Equal entries are not always repeated.

Experiments:
[1] = target: T1, MNoV (MNV1) strain CW3 VP1 protruding (P) domain (murine norovirus (MNV1 strain CW3), UniProt Q80J94 229-540); assay: SPR
T1 sequence: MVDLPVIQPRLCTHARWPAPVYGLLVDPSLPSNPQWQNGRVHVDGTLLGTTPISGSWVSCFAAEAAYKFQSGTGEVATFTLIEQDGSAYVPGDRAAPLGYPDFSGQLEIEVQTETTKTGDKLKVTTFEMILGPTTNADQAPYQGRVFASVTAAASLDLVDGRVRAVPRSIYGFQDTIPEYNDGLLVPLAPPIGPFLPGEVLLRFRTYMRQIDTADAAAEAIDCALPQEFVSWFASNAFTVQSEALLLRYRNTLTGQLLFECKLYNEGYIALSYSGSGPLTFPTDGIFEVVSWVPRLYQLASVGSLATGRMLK

[2] = target: T1, MNoV (MNV1) strain CW3 VP1 protruding …; assay: ITC
[3] = target: T1, MNoV (MNV1) strain CW3 VP1 protruding …; assay: BLI

B1: murine CD300lf ectodomain (receptor)
chain: MAEDPVTGPEEVSGQEQGSLTVQCRYTSGWKDYKKYWCQGVPQRSCKTLVETDASEQLVKKNRVSIRDNQRDFIFTVTMEDLRMSDAGIYWCGITKGGLDPMFKVTVNIGPVPT
- Kd [1]: 219 µM
- Kd [2]: 24.5 µM and ~24.3 µM and 12 µM
- stoichiometry N [2]: ~1

B2: Fc–CD300lf fusion protein (Fc fusion)
chain: EDPVTGPEEVSGQEQGSLTVQCRYTSGWKDYKKYWCQGVPQRSCKTLVETDASEQLVKKNRVSIRDNQRDFIFTVTMEDLRMSDAGIYWCGITKGGLDPMFKVTVNIGP
- Kd [3]: 0.54 µM
